Laboratory results taken from article PMC4935801, “The Arabidopsis Golgi-localized GDP-L-fucose transporter is required for plant development” (Nature Communications, 2016).

Key:
Assay in all cases: proteo-liposome transport assay, LC-MS/MS
Assay type in all cases: biochemical, Arabidopsis thaliana
Settings in all cases: apparent Km, proteo-liposomes pre-loaded with 10 mM GMP, 0.5–400 μM substrate, 25 °C, pH 7.5, mean (s.e.m.) n=4
[1] = substrate: C[C@@H]1O[C@H](OP(=O)(O)OP(=O)(O)OC[C@H]2O[C@@H](n3cnc4c(=O)[nH]c(N)nc43)[C@H](O)[C@@H]2O)[C@@H](O)[C@H](O)[C@@H]1O
Text: proteo-liposome transport assay, LC-MS/MS on GFT1

[2] = substrate: C[C@@H]1O[C@H](OP(=O)(O)OP(=O)(O)OC[C@H]2O[C@@H](n3cnc4c(=O)[nH]c(N)nc43)[C@H](O)[C@@H]2O)[C@@H](O)[C@H](O)[C@@H]1O; remark: listed apart in the source
Text: (§1) proteo-liposome transport assay, LC-MS/MS on GONST1

[3] = substrate: Nc1nc2c(ncn2[C@@H]2O[C@H](COP(=O)(O)OP(=O)(O)O[C@H]3O[C@H](CO)[C@@H](O)[C@H](O)[C@@H]3O)[C@@H](O)[C@H]2O)c(=O)[nH]1
Text: as §1

B1: GFT1 (Arabidopsis thaliana) (protein)
chain: MSSSRFDSNKQLTTSSLVIGYALCSSLLAVINKLAITYFNYPGLLTALQYLTCTVAVYLLGKSGLINHDPFTWDTAKKFLPAAIVFYLAIFTNTNLLRHANVDTFIVFRSLTPLLVAIADTVFRSQPLPSRLTFLSLVVILAGAVGYVATDSSFTLTAYSWALAYLVTITTEMVYIKHMVSNIKLNIWGLVLYNNLLSLMIAPVFWFLTGEFTEVFAALSENRGNLFEPYAFSSVAASCVFGFLISYFGFAARNAISATAFTVTGVVNKFLTVVINVLIWDKHATPVGLVCLLFTICGGVGYQQSVKLDKPIEKVSEKDSEKGEEDEELTQLVPGKLASVV
notes: yeast microsomal protein reconstituted into liposomes
[1]
  Km: 7 (1) μM
  Vmax: 3.24 µM/min
  kcat: 4 s⁻¹

B2: GONST1 (Arabidopsis thaliana) (protein)
chain: MKLYEHDGVDLEDGKTVKSGGDKPIPRKIHNRALLSGLAYCISSCSMILVNKFVLSSYNFNAGIFLMLYQNFVSVIIVVGLSLMGLITTEPLTLRLMKVWFPVNVIFVGMLITSMFSLKYINVAMVTVLKNVTNVITAVGEMYLFNKQHDNRVWAALFLMIISAVSGGITDLSFNAVGYAWQIANCFLTASYSLTLRKTMDTAKQVTQSGNLNEFSMVLLNNTLSLPLGLLLSYFFNEMDYLYQTPLLRLPSFWMVMTLSGLLGLAISFTSMWFLHQTGATTYSLVGSLNKIPLSIAGIVLFNVPTSLQNSASILFGLVAGVVFARAKMREKS
notes: as for B1
[2]
  Km: 76 (5) μM
  Vmax: 0.84 µM/min
  kcat: 0.7 s⁻¹
[3]
  Km: 17 (3) μM
  Vmax: 1.44 µM/min
  kcat: 1.2 s⁻¹
